Experimental data taken from patent publication EP2397495A1 (SANOFI, dated 2011).
Positions count from the first letter of the chain named. “And” between values parts separate entries of the source, which are not always exact repeats. Identical values can stand only once.

T1: human GPVI on the platelet surface (human, UniProt Q9HCN6 21-339)
T1 sequence (looked up): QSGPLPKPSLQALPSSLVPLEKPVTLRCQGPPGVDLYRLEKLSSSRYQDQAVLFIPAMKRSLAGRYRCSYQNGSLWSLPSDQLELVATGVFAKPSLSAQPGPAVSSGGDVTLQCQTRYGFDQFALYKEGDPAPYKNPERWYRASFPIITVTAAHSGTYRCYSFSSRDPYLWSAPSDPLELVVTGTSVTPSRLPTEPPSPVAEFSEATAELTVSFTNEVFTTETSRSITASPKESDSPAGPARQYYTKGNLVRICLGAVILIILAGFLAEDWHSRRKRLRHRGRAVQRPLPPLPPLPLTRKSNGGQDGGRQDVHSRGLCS

B1: humanized anti-GPVI Fab VL1 with VH2 (Fab, V domains shown)
VH: QVQLQESGPGLVAPSQSLSITCTVSGFSLTGYGVNWVRQPPSRGLEWLGMIWGDGSTDYQSTLKSRLSISKDNSKSQVFLKMNSLTTDDTARYYCARDLPMDYWGQGTSVTVSS
VL: DIQMTQSPSSLSASVGGRVTITCKASQDINKYIAWYQHKPGKGPSLLIHYTSTLQPGVPSRFSGSGSGRDYSFSISNLQPEDIATYYCLQYANLLTFGGGTKLEIKR
B2: humanized anti-GPVI Fab VL1 with VH3 (Fab, V domains shown)
VH: B1 VH with Q1E, Q5L, Q16G, S42G, R43K, T86R, Q106L
VL: B1 VL
B3: humanized anti-GPVI Fab VL1 with VH4 (Fab, V domains shown)
VH: B1 VH with G31Y
VL: B1 VL
B4: humanized anti-GPVI Fab VL3 with VH2 (Fab, V domains shown)
VH: B1 VH
VL: B1 VL with N93L
B5: humanized anti-GPVI Fab VL1 with VH1 (Fab, V domains shown)
VH: B1 VH with N73T
VL: B1 VL
B6: humanized anti-GPVI Fab VL3 with VH4 (Fab, V domains shown)
VH: B1 VH with G31Y
VL: B1 VL with N93L
B7: humanized anti-GPVI Fab VL2 with VH2 (Fab, V domains shown)
VH: B1 VH
VL: B1 VL with N93H
B8: humanized anti-GPVI Fab VL1 with VH5 (Fab, V domains shown)
VH: B1 VH with Y103E
VL: B1 VL

These binders were tested against T1, human GPVI on the platelet surface (assay: cell-based or functional assay).

Row | Binder | IC50, inhibition of collagen induced platelet aggregation (human platelet rich plasma)
1 | B1 | 2.3 µg/mL and 2 µg/mL and 1.1 µg/mL
2 | B2 | 1.5 µg/mL and 1.7 µg/mL
3 | B3 | 1.6 µg/mL and 1.8 µg/mL and 1.2 µg/mL
4 | B4 | 1.9 µg/mL and 0.9 µg/mL and 2.1 µg/mL
5 | B5 | 1.5 µg/mL and 2.3 µg/mL
6 | B6 | 1 µg/mL and 2.3 µg/mL and 2 µg/mL
7 | B7 | 1.4 µg/mL and 2.4 µg/mL and 2.3 µg/mL
8 | B8 | 1.9 µg/mL and 2.3 µg/mL and 1.2 µg/mL
